From article PMC10846113, “fosA11, a novel chromosomal-encoded fosfomycin resistance gene identified in Providencia rettgeri” (Microbiology Spectrum, 2023)

Assays:
[1] = test system: C[C@@H]1O[C@@H]1P(=O)(O)O; assay: glutathione consumption, monochlorobimane fluorescence, Michaelis-Menten fit; format: biochemical, Escherichia coli; settings: 30 mM glutathione, 0.05 mM MnCl2, 0.1 M HEPES pH 8.0, 25 °C
Description: glutathione consumption, monochlorobimane fluorescence, Michaelis-Menten fit on FosA3

[2] = test system: C[C@@H]1O[C@@H]1P(=O)(O)O; assay: as above; format: biochemical, Providencia rettgeri; settings: 30 mM glutathione, 0.05 mM MnCl2, 0.1 M HEPES pH 8.0, 25 °C
Description: glutathione consumption, monochlorobimane fluorescence, Michaelis-Menten fit on FosA11

How did the Km [1] turn out when FosA3 (Escherichia coli) was run?
Its Km is 12 ± 2 mM.

What about the kcat [1] of the same substance?
Its kcat is 112 ± 5.3 s⁻¹.

What about the kcat/Km [1] of the same substance?
The kcat/Km was 9000 ± 1000 M⁻¹ s⁻¹.

How did the Km [2] turn out when FosA11 (Providencia rettgeri) was run?
The Km was 18 ± 4 mM.

What about the kcat [2] of the same substance?
The kcat was 56.1 ± 3.2 s⁻¹.

And the kcat/Km [2]?
Its kcat/Km is 2900 ± 500 M⁻¹ s⁻¹.
